The values below are quoted from earlier work in article PMC12172581.

The term pKa denotes the pH at which an ionisable group is half protonated.

The target of this data set is Nterm1 (UniProt position 672, SEVKMDAEFRH). Kind of data set: potentiometry. The note with it: apo (metal-free) peptide.

As for “Amyloid-beta peptide (Abeta1-40, as tabulated) (Homo sapiens)”, the pKa was 8.0.
